Assay results as given in patent publication US20170198050A1 (INHIBRX, published 2017).

Key:
[1] = molecular target: T1, human 41BB expressed on the cell surface (human, UniProt Q07011 24-255); test: flow cytometry on 41BB expressing 293freestyle cells
T1 construct: whole, on cells; also called human 41BB on CHO cells; human 41BB on 293freestyle cells
Protocol: The PDL1-41BB targeting fusion proteins of the disclosure include a humanized anti-41BB sequence. In the studies presented herein, the PDL1-41BB targeting fusion proteins of the disclosure include a humanized anti-41BB sequence such as hzRH3v5-1 (SEQ ID NO: 30) and/or hzRH3v9 (SEQ ID NO: 82) bind both human and cynomolgus 41BB (FIGS. 9A, 9B), including human 41BB and cynomolgus 41BB expressed on the surface of CHO cells (FIGS. 9C, 9D). Binding was assessed by flow cytometry on 41BB expressing 293freestyle cells.

[2] = molecular target: T2, recombinant human 41BB-mFc fusion protein (human, UniProt Q07011 24-186); test: ELISA, recombinant 41BB-mFc immobilized on Medisorp plate
T2 construct: A fusion protein containing 41BB operably linked to a mouse Fc region
Protocol: Binding was assessed by ELISA wherein recombinant 41BB-mFc protein was immobilized on a Medisorp 96 well plate.
(§1) The 41BB-targeting single domain antibodies (sdAbs) referred to herein as 1G3 (SEQ ID NO: 432), 1H4 (SEQ ID NO: 436), 1H1 (SEQ ID NO: 440), 4H4 (SEQ ID NO: 16), 1H8 (SEQ ID NO: 444), 4F5 (SEQ ID NO: 23), and 4E1 (SEQ ID NO: 20) bind recombinant human 41BB (FIG. 2A), cynomolgus 41BB (FIG. 2B). The 41BB-targeting single domain antibodies (sdAbs) referred to herein as 4F5 (SEQ ID NO: 23), 4H04 (SEQ ID NO: 16), 4E01 (SEQ ID NO: 20), RH03 (SEQ ID NO: 25), and D1 (SEQ ID NO: 29) bind human 41BB expressed on the cell surface of CHO cells (FIG. 3). The 41BB-targeting sdAbs referred to herein as 4H04, RH03, and […]. For FIG. 2A, FIG. 2B, and FIG. 4, binding was assessed by ELISA wherein recombinant 41BB-mFc fusion protein (a fusion protein containing 41BB operably linked to a mouse Fc region) was immobilized on a Medisorp 96 well plate. For FIG. 3, binding was assessed by flow cytometry using 41BB expressing CHO cells, and the data is presented as median fluorescence intensity.

[3] = molecular target: T1, human 41BB expressed on the cell surface; test: flow cytometry on 41BB expressing CHO cells
Source text: as §1

T1 sequence (Q07011 24-255): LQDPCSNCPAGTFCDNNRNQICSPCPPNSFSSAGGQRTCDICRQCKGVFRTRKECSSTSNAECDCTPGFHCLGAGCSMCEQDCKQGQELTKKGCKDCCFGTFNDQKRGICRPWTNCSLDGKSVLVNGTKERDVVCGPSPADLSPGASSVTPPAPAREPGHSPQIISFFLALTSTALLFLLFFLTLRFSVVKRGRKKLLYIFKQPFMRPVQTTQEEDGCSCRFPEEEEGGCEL

Row | binding result [1] | binding result [2] | binding result [3] | Binder
1 | binds |  |  | hzRH3v5-1 (VHH) VHH: EVQLLESGGGEVQPGGSLRLSCAASGFSFSINAMGWYRQAPGKRREFVAAIESGRNTVYAESVKGRFTISRDNAKNTVYLQMSSLRAEDTAVYYCGLLKGNRVVSPSVAYWGQGTLVTVKP
2 | binds |  |  | hzRH3v9 (VHH) VHH: EVQLLESGGGEVQPGGSLRLSCAASGFSFSINAMGWYRQAPGKGREFVAAIESGRNTVYAESVKGRFTISRDNAKNTVYLQMSSLRAEDTAVYYCGLLKGNRVVSPSVAYWGQGTLVTVKP
3 |  | binds |  | 1H1 (VHH, also called 41BB-targeting single domain antibody 1H1) VHH: QVQLVQSGGGLVQPGGSLRLSCAASGFTFDDHAMSWVRQAPGKGLEWVSAISWNGHYTYYAESMKGRFAISRDNAKNTLYLQMNSLKSEDTAVYYCVKGWRGSYTRDRPFASWGQGTQV
4 |  | binds |  | 1H4 (VHH, also called 41BB-targeting single domain antibody 1H4) VHH: QVQLVQSGGGLVQPGGSLRLSCVVSGFTFRSYAMSWVRQAPGKGLEWVSTINSGESSTKYADSVKGRFTISRDDAKNTLYLQMSDLKPEDTAVYFCAKHRGWSTVDDINYWGKGTQV
5 |  |  | binds | D1 (VHH, also called 41BB-targeting single domain antibody D1) VHH: EVQPVQSGGGLVQAGESLRLSCAASATIFSNNAMGWYRQAPGKQRELVATITTGGFTNYRDSVKGRFDISRDNAKNTVYLQMNNLKPEDTAVYYCNVVLRYSRDYSYTTVKEYWGQGTQV
6 |  |  | binds | RH3 (VHH, also called RH03) VHH: QVQLQESGGGLVQPGGSLRLSCAVSGFSFSINAMGWYRQAPGKRREFLAAIDSGRNTVYAVSVKGRFTISRDNAKNTVYLQMNSLKPEDTAIYYCGLLKGNRVVSPSVAYWGQGTQVT
7 |  | binds | binds | 4H04 (VHH, also called 4H4) VHH: QVQLQESGGGLVQAGDSLRLSCAASGWAFDNYGMAWFRQAPGKEREFIGRLAWNGGSTDYADSVKGRFTISRDNPKNTLYLQMNNLKPEDTAVYYCARQRSYSGYGIRTPQTYDYWGQGTQVT
8 |  | binds | binds | 4F5 (VHH, also called 4F05) VHH: QVQLVQSGGGLVQPGGSLRLSCAASGWAFDNYGMAWFRQAPGKEREFIGRLAWNGGSTDYADSVKGRFTISRDNPKNTLYLQMNSLKPEDTAVYYCARQRSYSRYGIRAPQTYDYWGQGTQVT
9 |  | binds | binds | 4E01 (VHH, also called 4E1) VHH: QVQLQQSGGGLVQAGDSLRLSCAASGWAFGNYGMAWFRRAPGKEREFIGRLAWNGGSTDYVDSVKGRFTISRDNPKNTLYLQMNNLKPDDTAVYYCARQRSYSRYDIRTPQTYDYWGQGTQVT
10 |  | binds |  | 1G3 (VHH, also called 41BB-targeting single domain antibody 1G3) VHH: QVQLVQSGGGLVQPGGSLRLSCAASGFTFSSYAMSWVRQAPGKGLEWVSAIPAGDGSTKYADSVKGRFTISRDNAKNTVYLQMDSLKPEDTAVYFCAKSRGWSTVDDMDYWGKGTQV
11 |  | binds |  | 1H8 (VHH, also called 41BB-targeting single domain antibody 1H8) VHH: EVQLVQSGGGLVQPGGSLRLSCAASGFTFSSYYMSWVRQAPGKGLEWVSTISTNTGGGSTYYAYADSVKGRFTISRDNAKNTLYLEMNSLKPEDTAQYYCVRTRWEGVYDYWGLGTQV
